Values quoted from earlier work, collected in patent US20240325609A1, “POLYPEPTIDE MONOLITHS” (Trustees of Tufts College, priority 2015, published 2024).

Settings: room temperature for 14 days, not encapsulated

Q: For “HRP not encapsulated in silk: free horse radish peroxidase enzyme”, which “shelf stability of HRP” value is on record?
A: not shelf-stable
